US20140288007A1

T1: recombinant RgpB propeptide, P95493
T1 chain: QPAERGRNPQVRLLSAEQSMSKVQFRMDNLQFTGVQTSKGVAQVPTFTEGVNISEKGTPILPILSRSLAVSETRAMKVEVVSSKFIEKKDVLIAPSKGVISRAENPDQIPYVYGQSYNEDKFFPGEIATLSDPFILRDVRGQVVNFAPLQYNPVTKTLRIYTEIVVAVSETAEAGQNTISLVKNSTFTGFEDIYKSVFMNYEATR


Legend:
[1] = target: papain (UniProt P00784); assay: cell-based or functional assay
[2] = target: Kgp on P. gingivalis W50 whole cells (Lys-specific activity, GPKNa substrate) (Porphyromonas gingivalis) (UniProt Q51817); assay: cell-based or functional assay
[3] = target: caspase 3; assay: cell-based or functional assay
[4] = target: RgpB (mature Arg-gingipain purified from P. gingivalis HG66) (Porphyromonas gingivalis) (UniProt P95493); assay: cell-based or functional assay
[5] = target: Whole cell W50 (proteolytic activity on BapNa substrate); assay: cell-based or functional assay
[6] = target: RgpB (mature Arg-gingipain purified from P. gingivalis HG66) (Porphyromonas gingivalis) (UniProt P95493); assay: enzyme inhibition kinetics (non-competitive, Ki′), chromogenic substrate BapNA, secondary plot of Vmax observed against inhibitor concentration
[7] = target: T1, recombinant RgpB propeptide, P95493

Sequence of UniProt P00784 (P00784 134-345 limits assumed): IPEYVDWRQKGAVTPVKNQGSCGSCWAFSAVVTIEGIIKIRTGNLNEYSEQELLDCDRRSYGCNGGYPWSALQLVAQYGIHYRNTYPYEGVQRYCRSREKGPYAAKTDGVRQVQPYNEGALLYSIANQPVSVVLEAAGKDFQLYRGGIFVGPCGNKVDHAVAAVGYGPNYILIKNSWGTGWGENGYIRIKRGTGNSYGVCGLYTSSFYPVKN

Row | Molecule | % Proteolytic Activity (BapNa; inhibitor 40 mg/L) [1] [%] | % Proteolytic Activity (whole cells, GPKNa; inhibitor 40 mg/L) [2] [%] | % Proteolytic Activity (whole cells, GPKNa; inhibitor 80 mg/L) [2] [%] | % Proteolytic Activity (Ac-DEVD-pNa 200 uM; inhibitor 100 mg/L) [3] [%] | % Proteolytic Activity (BapNa; inhibitor 50 mg/L) [4] [%] | inhibition of RgpB activity, DQ BSA, 2 h incubation [4] [%] | % Proteolytic Activity (whole cells, BapNa; inhibitor 40 mg/L) [5] [%] | % Proteolytic Activity (whole cells, BapNa; inhibitor 80 mg/L) [5] [%] | Ki [6] [nM] | RgpB proteolytic activity, DQ-BSA fluorescent substrate, 11 h time course [7]
1 | recombinant Kgp propeptide (from UniProt Q51817 25-1732) | 88 | 65 | 40 | 121 | 105 |  |  |  |  | 
2 | recombinant RgpB propeptide (from UniProt P95493 25-229) | 68 |  |  | 129 |  | 50 | 68 | 59 | 11.8 | 
3 | RgpB (mature Arg-gingipain purified from P. gingivalis HG66) (protein) YTPVEEKENGRMIVIVPKKYEEDIEDFVDWKNQRGLRTEVKVAEDIASPVTANAIQQFVKQEYEKEGNDLTYVLLVGDHKDIPAKITPGIKSDQVYGQIVGNDHYNEVFIGRFSCESKEDLKTQIDRTIHYERNITTEDKWLGQALCIASAEGGPSADNGESDIQHENIIANLLTQYGYTKIIKCYDPGVTPKNIIDAFNGGISLANYTGHGSETAWGTSHFGTTHVKQLTNSNQLPFIFDVACVNGDFLYNVPCFAEALMRAQKDGKPTGTVAIIASTINQSWASPMRGQDEMNEILCEKHPNNIKRTFGGVTMNGMFAMVEKYKKDGEKMLDTWTVFGDPSLLVRTLVPTKMQVTAPANISASAQTFEVACDYNGAIATLSDDGDMVGTAIVKDGKAIIKLNESIADETNLTLTVVGYNKVTVIKDVKVEGTSIADVANDKPYTVAVSGKTITVESPAAGLTIFDMNGRRVATAKNRMVFEAQNGVYAVRIATEGKTYTEKVIVK |  |  |  |  |  |  |  |  |  | Addition of 10 mg/L (0.44 µM) or 20 mg/L (0.88 µM) RgpB propeptide resulted in near total inhibition of RgpB proteolytic activity
